The values below come from US20070105796A1.

This test addresses TERT (telomerase reverse transcriptase), catalytic subunit of telomerase (human) (UniProt O14746). Description: cell-based or functional assay.

TERT (telomerase reverse transcriptase), catalytic subunit of telomerase (human), sequence (O14746 whole entry): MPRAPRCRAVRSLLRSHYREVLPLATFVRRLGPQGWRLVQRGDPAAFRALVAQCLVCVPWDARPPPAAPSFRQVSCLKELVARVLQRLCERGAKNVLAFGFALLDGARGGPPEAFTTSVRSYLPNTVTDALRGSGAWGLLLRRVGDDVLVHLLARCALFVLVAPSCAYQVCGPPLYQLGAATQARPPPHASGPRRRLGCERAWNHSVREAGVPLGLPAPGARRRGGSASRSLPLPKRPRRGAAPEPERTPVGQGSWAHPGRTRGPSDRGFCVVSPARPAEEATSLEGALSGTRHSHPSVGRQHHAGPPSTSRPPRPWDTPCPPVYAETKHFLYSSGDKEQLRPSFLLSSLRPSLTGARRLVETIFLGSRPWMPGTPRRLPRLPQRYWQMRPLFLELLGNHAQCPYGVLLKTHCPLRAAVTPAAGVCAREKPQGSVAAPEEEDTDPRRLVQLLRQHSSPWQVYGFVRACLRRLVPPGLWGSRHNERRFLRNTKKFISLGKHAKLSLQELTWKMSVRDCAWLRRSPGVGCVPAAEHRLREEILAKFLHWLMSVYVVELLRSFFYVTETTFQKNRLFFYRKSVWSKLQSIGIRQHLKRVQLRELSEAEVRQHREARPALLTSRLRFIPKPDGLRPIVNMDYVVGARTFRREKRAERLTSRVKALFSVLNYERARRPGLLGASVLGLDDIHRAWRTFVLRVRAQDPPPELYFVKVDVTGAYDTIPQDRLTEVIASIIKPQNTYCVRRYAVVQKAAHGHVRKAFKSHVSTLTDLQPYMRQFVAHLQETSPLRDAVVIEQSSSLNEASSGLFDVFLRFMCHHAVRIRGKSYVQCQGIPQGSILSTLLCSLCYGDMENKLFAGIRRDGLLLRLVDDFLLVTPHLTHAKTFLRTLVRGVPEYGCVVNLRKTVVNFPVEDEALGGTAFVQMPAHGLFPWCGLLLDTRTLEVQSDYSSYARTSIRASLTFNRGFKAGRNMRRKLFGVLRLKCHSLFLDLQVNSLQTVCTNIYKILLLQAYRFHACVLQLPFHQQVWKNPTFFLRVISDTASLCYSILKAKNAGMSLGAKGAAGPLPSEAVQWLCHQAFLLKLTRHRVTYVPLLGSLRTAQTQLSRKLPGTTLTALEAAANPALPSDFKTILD

“GST fusion active MAPKAPK3 (T201E/T313E) (from UniProt Q16644 1-382) (enzyme)”: the telomerase activity (TRAP method) in dephosphorylated HEK293 cell nuclear extract after phosphorylation reaction stood at 1.5 fold. In the case of “N-terminal HA-tagged active MAPKAPK3 (T201E/T313E) (from UniProt Q16644 1-382) (enzyme)”, the intracellular telomerase activity (TRAP method) in HEK293T cells against the negative control vector came out at 1.4 fold. In turn, “N-terminal HA-tagged inactive MAPKAPK3 (T201A/T313A) (from UniProt Q16644 1-382) (enzyme)” yielded an intracellular telomerase activity (TRAP method) in HEK293T cells of 0.7 fold.
